T1: recombinant human TL1A (human, UniProt O95150 71-251)
T1 construct: homotrimer; biotinylated for SPR capture; the ELISA paragraphs say only 'recombinant TL1A'; also called TNFSF15
T1 chain: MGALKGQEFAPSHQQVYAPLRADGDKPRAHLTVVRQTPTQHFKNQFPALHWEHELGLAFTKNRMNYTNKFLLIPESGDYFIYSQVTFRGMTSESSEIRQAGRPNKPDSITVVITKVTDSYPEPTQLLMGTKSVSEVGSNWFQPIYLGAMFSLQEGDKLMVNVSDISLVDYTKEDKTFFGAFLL

T2: recombinant human TL1A (human, UniProt O95150 71-251)
T2 construct: The ELISA method says only 'recombinant TL1A' coated on plates; homotrimeric cytokine; also called TNFSF15; recombinant TL1A
T2 chain: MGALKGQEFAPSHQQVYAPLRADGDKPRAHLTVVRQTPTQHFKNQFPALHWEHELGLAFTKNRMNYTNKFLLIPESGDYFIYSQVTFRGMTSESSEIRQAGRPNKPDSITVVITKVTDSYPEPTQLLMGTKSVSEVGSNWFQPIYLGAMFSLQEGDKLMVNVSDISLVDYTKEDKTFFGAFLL


Target: T1, recombinant human TL1A
Test: competition ELISA vs bio-TL1A-0002
Method: For this competition ELISA assay procedure, 96-well high binding plates (Corning, product number 3590) were coated with 1 μg/mL recombinant TL1A in 100 μL/well in Phospate Buffered Saline (PBS) overnight at 4° C. Plates were then blocked in PBS+0.02% casein solution and washed with PBS+0.05% Tween-20 following standard ELISA protocol. […] Plates were washed with PBS+0.05% Tween-20 following standard ELISA protocol, and Streptavidin-HRP (Southern Biotech, product number 7100-05) diluted to 1:10,000 in assay buffer was added to plates and incubated for 25-30 minutes at room temperature. Next, the plates were washed with PBS+0.05% Tween-20 following standard ELISA protocol, and then TMB substrate (BioFX Laboratories, catalog number TMBW-0100-01) was added to plates. Reactions were stopped after approximately 5 minutes by adding 0.18 M ortho-phosphoric acid to each well and absorbance was read at 450 nm.

Bioactivity relative to TL1A-0002 [fold] | IC50 [nM] | Binder
1.1 | 5 | TL1A-0012 (antibody, IgG1, V domains shown, IgG1/kappa variant of TL1A-0002) VH: QVQLVQSGAEVKKPGASVKVSCKASGYDFTYYGISWVRQAPGQGLEWMGWISTYNGNTHYADSLQGRVTMTTDTSTRTAYMELRSLRSDDTAVYYCARENYYGSGAYRGGMDVWGQGTTVTVSS VL: EIVLTQSPATLSLSPGERATLSCRASQSVSSYLAWYQQKPGQAPRLLIYDASNRATGIPARFSGSGSGTDFTLTISSLEPEDFAVYYCQQRSNWPWTFGQGTKVEIKR
1.2 | 5.4 | TL1A-0024 (antibody, IgG1, V domains shown, IgG1/kappa variant of TL1A-0002) VH: QVQLVQSGAEVKKPGASVKVSCKASGYDFTYYGISWVRQAPGQGLEWMGWISTYNGNEHYAPSLQGRVTMTTDTSTRTAYMELRSLRSDDTAVYYCARENYYGSGAYRGGMDVWGQGTTVTVSS VL: EIVLTQSPATLSLSPGERATLSCRASQSVSSYLAWYQQKPGQAPRLLIYDASNRATGIPARFSGSGSGTDFTLTISSLEPEDFAVYYCQQRSNWPWTFGQGTKVEIKR
1.1 | 5 | TL1A-0019 (antibody, IgG1, V domains shown, IgG1/kappa variant of TL1A-0002) VH: QVQLVQSGAEVKKPGASVKVSCKASGYDFTYYGISWVRQAPGQGLEWMGWISTYNGNTHHARMLQGRVTMTTDTSTRTAYMELRSLRSDDTAVYYCARENYYGSGAYRGGMDVWGQGTTVTVSS VL: EIVLTQSPATLSLSPGERATLSCRASQSVSSYLAWYQQKPGQAPRLLIYDASNRATGIPARFSGSGSGTDFTLTISSLEPEDFAVYYCQQRSNWPWTFGQGTKVEIKR
1.1 | 5.1 | TL1A-0014 (antibody, IgG1, V domains shown, IgG1/kappa variant of TL1A-0002) VH: QVQLVQSGAEVKKPGASVKVSCKASGYDFTYYGISWVRQAPGQGLEWMGWISTYNGNTHYAQKLQGRVTMTTDTSTRTAYMELRSLRSDDTAVYYCARENYYGSGAYRGGMDVWGQGTTVTVSS VL: EIVLTQSPATLSLSPGERATLSCRASQSVSSYLAWYQQKPGQAPRLLIYDASNRATGIPARFSGSGSGTDFTLTISSLEPEDFAVYYCQQRSNWPWTFGQGTKVEIKR
1.5 | 6.9 | TL1A-0022 (antibody, IgG1, V domains shown, IgG1/kappa variant of TL1A-0002) VH: QVQLVQSGAEVKKPGASVKVSCKASGYDFTYYGISWVRQAPGQGLEWMGWISTYNGNEHYARMLQGRVTMTTDTSTRTAYMELRSLRSDDTAVYYCARENYYGSGAYRGGMDVWGQGTTVTVSS VL: EIVLTQSPATLSLSPGERATLSCRASQSVSSYLAWYQQKPGQAPRLLIYDASNRATGIPARFSGSGSGTDFTLTISSLEPEDFAVYYCQQRSNWPWTFGQGTKVEIKR
1.2 | 5.5 | TL1A-0013 (antibody, IgG1, V domains shown, IgG1/kappa variant of TL1A-0002) VH: QVQLVQSGAEVKKPGASVKVSCKASGYDFTYYGISWVRQAPGQGLEWMGWISTYNGNTHYAPSLQGRVTMTTDTSTRTAYMELRSLRSDDTAVYYCARENYYGSGAYRGGMDVWGQGTTVTVSS VL: EIVLTQSPATLSLSPGERATLSCRASQSVSSYLAWYQQKPGQAPRLLIYDASNRATGIPARFSGSGSGTDFTLTISSLEPEDFAVYYCQQRSNWPWTFGQGTKVEIKR
1.3 | 6 | TL1A-0021 (antibody, IgG1, V domains shown, IgG1/kappa variant of TL1A-0002) VH: QVQLVQSGAEVKKPGASVKVSCKASGYDFTYYGISWVRQAPGQGLEWMGWISTYNGNDHYARMLQGRVTMTTDTSTRTAYMELRSLRSDDTAVYYCARENYYGSGAYRGGMDVWGQGTTVTVSS VL: EIVLTQSPATLSLSPGERATLSCRASQSVSSYLAWYQQKPGQAPRLLIYDASNRATGIPARFSGSGSGTDFTLTISSLEPEDFAVYYCQQRSNWPWTFGQGTKVEIKR
1.3 | 5.6 | TL1A-0023 (antibody, IgG1, V domains shown, IgG1/kappa variant of TL1A-0002) VH: QVQLVQSGAEVKKPGASVKVSCKASGYDFTYYGISWVRQAPGQGLEWMGWISTYNGNDHYAPSLQGRVTMTTDTSTRTAYMELRSLRSDDTAVYYCARENYYGSGAYRGGMDVWGQGTTVTVSS VL: EIVLTQSPATLSLSPGERATLSCRASQSVSSYLAWYQQKPGQAPRLLIYDASNRATGIPARFSGSGSGTDFTLTISSLEPEDFAVYYCQQRSNWPWTFGQGTKVEIKR

Target: T2, recombinant human TL1A
Test: competition ELISA on coated recombinant TL1A; competitor biotinylated TL1A-0002

Bioactivity relative to TL1A-0002 [fold] | IC50 [nM] | Binder
1.8 | 9 | TL1A-0291 (antibody, human IgG1, kappa, V domains shown, human IgG1 effector-function-minimized / human kappa) VH: QVQLVQSGAEVKKPGASVKVSCKASGYDFTYYGVSWVRQAPGQGLEWMGWISTYNTGTHYAQKLQGRVTMTTDTSTSTAYMELRSLRSDDTAVYYCARESYYGSGAHRGGMDVWGQGTTVTVSS VL: DIQMTQSPSSLSASVGDRVTITCRASQSVSSYLAWYQQKPGKAPKLLIYDASNRATGVPSRFSGSGSGTDFTLTISSLQPEDFATYYCQQRSNWPWTFGQGTKVEIKR
3.1 | 15.8 | TL1A-0306 (antibody, human IgG1, kappa, V domains shown, human IgG1 effector-function-minimized / human kappa) VH: QVQLVQSGAEVKKPGASVKVSCKASGYDFTYYGIGWVRQAPGQGLEWMGWISTYNTVTHYAPSLQGRVTMTTDTSTSTAYMELRSLRSDDTAVYYCARESYYGSGAFRGGMDVWGQGTTVTVSS VL: DIQMTQSPSSLSASVGDRVTITCRASQSVSSYLAWYQQKPGKAPKLLIYDASNRATGVPSRFSGSGSGTDFTLTISSLQPEDFATYYCQQRSNWPWTFGQGTKVEIKR
14.8 | 74.7 | TL1A-0310 (antibody, V domains shown, IgG1 effector-minimized/kappa) VH: QVQLVQSGAEVKKPGASVKVSCKASGYDFTYYGIGWVRQAPGQGLEWMGWISTYGGNTHYAPSLQGRVTMTTDTSTSTAYMELRSLRSDDTAVYYCARESYYGSGAFRGGMDVWGQGTTVTVSS VL: DIQMTQSPSSLSASVGDRVTITCRASQSVSSYLAWYQQKPGKAPKLLIYDASNRATGVPSRFSGSGSGTDFTLTISSLQPEDFATYYCQQRSNWPWTFGQGTKVEIKR
2.9 | 14.5 | TL1A-0305 (antibody, human IgG1, kappa, V domains shown, human IgG1 effector-function-minimized / human kappa) VH: QVQLVQSGAEVKKPGASVKVSCKASGYDFTYYGIGWVRQAPGQGLEWMGWISTYNTGTHYAQKLQGRVTMTTDTSTSTAYMELRSLRSDDTAVYYCARESYYGSGAHRGGMDVWGQGTTVTVSS VL: DIQMTQSPSSLSASVGDRVTITCRASQSVSSYLAWYQQKPGKAPKLLIYDASNRATGVPSRFSGSGSGTDFTLTISSLQPEDFATYYCQQRSNWPWTFGQGTKVEIKR
3 | 14.9 | TL1A-0304 (antibody, human IgG1, kappa, V domains shown, human IgG1 effector-function-minimized / human kappa) VH: QVQLVQSGAEVKKPGASVKVSCKASGYDFTYYGIGWVRQAPGQGLEWMGWISTYNTGTHYAQKLQGRVTMTTDTSTSTAYMELRSLRSDDTAVYYCARESYYGSGAFRGGMDVWGQGTTVTVSS VL: DIQMTQSPSSLSASVGDRVTITCRASQSVSSYLAWYQQKPGKAPKLLIYDASNRATGVPSRFSGSGSGTDFTLTISSLQPEDFATYYCQQRSNWPWTFGQGTKVEIKR
3.4 | 17.2 | TL1A-0307 (antibody, human IgG1, kappa, V domains shown, human IgG1 effector-function-minimized / human kappa) VH: QVQLVQSGAEVKKPGASVKVSCKASGYDFTYYGIGWVRQAPGQGLEWMGWISTYNTVTHYAPSLQGRVTMTTDTSTSTAYMELRSLRSDDTAVYYCARESYYGSGAHRGGMDVWGQGTTVTVSS VL: DIQMTQSPSSLSASVGDRVTITCRASQSVSSYLAWYQQKPGKAPKLLIYDASNRATGVPSRFSGSGSGTDFTLTISSLQPEDFATYYCQQRSNWPWTFGQGTKVEIKR
6 | 30.2 | TL1A-0311 (antibody, V domains shown, IgG1 effector-minimized/kappa) VH: QVQLVQSGAEVKKPGASVKVSCKASGYDFTYYGIGWVRQAPGQGLEWMGWISTYGGNTHYAPSLQGRVTMTTDTSTSTAYMELRSLRSDDTAVYYCARESYYGSGAHRGGMDVWGQGTTVTVSS VL: DIQMTQSPSSLSASVGDRVTITCRASQSVSSYLAWYQQKPGKAPKLLIYDASNRATGVPSRFSGSGSGTDFTLTISSLQPEDFATYYCQQRSNWPWTFGQGTKVEIKR
3.3 | 16.8 | TL1A-0309 (antibody, human IgG1, kappa, V domains shown, human IgG1 effector-function-minimized / human kappa) VH: QVQLVQSGAEVKKPGASVKVSCKASGYDFTYYGIGWVRQAPGQGLEWMGWISTYNTNTHYAPSLQGRVTMTTDTSTSTAYMELRSLRSDDTAVYYCARESYYGSGAHRGGMDVWGQGTTVTVSS VL: DIQMTQSPSSLSASVGDRVTITCRASQSVSSYLAWYQQKPGKAPKLLIYDASNRATGVPSRFSGSGSGTDFTLTISSLQPEDFATYYCQQRSNWPWTFGQGTKVEIKR
1.2 | 6.1 | TL1A-0324 (antibody, human IgG1, kappa, V domains shown, human IgG1 effector-function-minimized / human kappa) VH: QVQLVQSGAEVKKPGASVKVSCKASGYDFTYYGISWVRQAPGQGLEWMGWISTYNTNTHYARMLQGRVTMTTDTSTSTAYMELRSLRSDDTAVYYCARESYYGSGAYRGGMDVWGQGTTVTVSS VL: DIQMTQSPSSLSASVGDRVTITCRASQSVSSYLAWYQQKPGKAPKLLIYDASNRATGVPSRFSGSGSGTDFTLTISSLQPEDFATYYCQQRSNWPWTFGQGTKVEIKR
2.8 | 14.2 | TL1A-0308 (antibody, human IgG1, kappa, V domains shown, human IgG1 effector-function-minimized / human kappa) VH: QVQLVQSGAEVKKPGASVKVSCKASGYDFTYYGIGWVRQAPGQGLEWMGWISTYNTNTHYAPSLQGRVTMTTDTSTSTAYMELRSLRSDDTAVYYCARESYYGSGAFRGGMDVWGQGTTVTVSS VL: DIQMTQSPSSLSASVGDRVTITCRASQSVSSYLAWYQQKPGKAPKLLIYDASNRATGVPSRFSGSGSGTDFTLTISSLQPEDFATYYCQQRSNWPWTFGQGTKVEIKR

— patent US20240059799A1 (Pfizer, published 2024)
